In patent US20130156764A1, “NEUTRALIZATION OF FLT3 LIGAND AS A LEUKEMIA THERAPY” (The Johns Hopkins University, priority 2010, published 2013):

How the values were obtained:
[1] = test system: FLT3/ITD and FLT3/TKD in TF1 cells; experiment: FL stimulation, FLT3 phosphorylation in TF1/ITD and TF1/TKD cells; type: cell-based; conditions: FL 15 minutes after serum starvation
Method: TF1 and BaF3 cells were transfected with pCINeo constructs containing either FLT3/ITD or FLT3/TKD mutation by electroporation (Bio-Rad, Hercules, Calif.). Stable transfectants were then selected by limiting dilution in 96-well plates with 1 mg/mL G418 (Invitrogen, Carlsbad, Calif.).
The possibility of further activation of FLT3 mutant receptors by exogenous FL was also tested in cell lines in which FL autocrine, paracrine, or intracrine stimulation of FLT3 receptor might exist. […] TF1 cells expressing FLT3 mutant receptors were starved for 16 hours in serum-free medium and washed once with PBS to deplete soluble FL (either produced by the cells or contained in the serum). These cells were then stimulated with exogenous FL for 15 minutes. More than 2-fold enhancement of FLT3 phosphorylation was detected in both TF1/ITD and TF1/TKD cell lines (FIG. 12A). […] To assess the functional effect of exogenous FL, TF1/ITD and TF1/TKD cells were cultured in serum-free medium in the absence and presence of FL for 48 hours. Apoptosis was assessed by Annexin V and 7AAD staining followed by FACS analysis. […] There was no change of cell cycle status in response to FL in these cells (data not shown).

[2] = target: T1, FLT3/ITD in MV411 cells (Homo sapiens, UniProt P36888, INS600HVDFREYEYD); experiment: FL stimulation, FLT3 phosphorylation in MV411 cells; type: cell-based
T1 construct: endogenous in cells; host or cells: MV411
T1 sequence (P36888 with tags, fused parts or gaps INS600HVDFREYEYD): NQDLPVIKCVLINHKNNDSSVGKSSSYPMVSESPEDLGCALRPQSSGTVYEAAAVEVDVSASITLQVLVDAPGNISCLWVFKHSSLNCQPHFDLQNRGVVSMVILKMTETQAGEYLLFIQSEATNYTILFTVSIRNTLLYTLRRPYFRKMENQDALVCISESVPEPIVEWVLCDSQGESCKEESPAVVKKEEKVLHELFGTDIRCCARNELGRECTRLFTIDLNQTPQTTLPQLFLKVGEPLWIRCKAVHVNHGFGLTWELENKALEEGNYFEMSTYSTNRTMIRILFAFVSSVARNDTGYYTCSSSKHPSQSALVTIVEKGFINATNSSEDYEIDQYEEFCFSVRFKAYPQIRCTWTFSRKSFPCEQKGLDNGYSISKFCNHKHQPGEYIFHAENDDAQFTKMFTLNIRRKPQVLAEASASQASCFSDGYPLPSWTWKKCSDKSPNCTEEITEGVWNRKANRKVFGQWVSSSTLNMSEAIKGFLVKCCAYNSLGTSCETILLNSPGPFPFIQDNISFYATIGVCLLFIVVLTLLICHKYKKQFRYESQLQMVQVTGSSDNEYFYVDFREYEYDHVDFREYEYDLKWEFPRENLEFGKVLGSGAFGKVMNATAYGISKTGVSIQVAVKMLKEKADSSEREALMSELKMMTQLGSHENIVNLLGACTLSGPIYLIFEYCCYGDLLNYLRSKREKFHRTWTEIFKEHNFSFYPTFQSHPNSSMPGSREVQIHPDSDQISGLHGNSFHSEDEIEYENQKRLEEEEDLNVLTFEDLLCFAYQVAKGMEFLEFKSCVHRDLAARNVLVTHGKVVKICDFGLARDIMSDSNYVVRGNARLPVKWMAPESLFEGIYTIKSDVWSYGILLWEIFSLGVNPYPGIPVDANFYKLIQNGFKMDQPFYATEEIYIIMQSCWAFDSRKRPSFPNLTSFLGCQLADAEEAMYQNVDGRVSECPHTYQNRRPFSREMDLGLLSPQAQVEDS

[3] = test system: primary AML blast samples harboring a FLT3/ITD mutation; experiment: MTT assay in primary AML blast samples with FLT3/ITD mutation with FL; type: cell-based, human; conditions: addition of exogenous FL, all 3 samples
Source text: Leukemia cell specimens were provided by the Sidney Kimmel Cancer Center at Johns Hopkins Tumor and Cell Procurement Bank. All patients gave informed consent according to the Declaration of Helsinki. The specimens were obtained by Ficoll purifying mononuclear cells from the peripheral blood patients with FLT3/ITD AML. The mononuclear cells were aliquoted and stored frozen in liquid nitrogen in bovine serum with 10% DMSO for repeated use. Prior to each use, aliquots of these blasts were thawed rapidly into warm culture medium, incubated for 12 hours, and then recentrifuged over Ficoll to eliminate cells dying from the freeze-thaw process. Using this method, blasts were obtained that maintained satisfactory viability (as determined by Trypan blue exclusion) and responsiveness to cytotoxic agents in culture over 72 hours.
Cytotoxicity was assessed using an MTT (Dimethyl-thiazol diphenyl tetrazolium bromide) assay. In selected cases, an Annexin-V binding apoptosis assay was also used to confirm that the cytotoxic effect observed (or lack thereof) was associated with an equivalent degree of apoptosis. MTT (Roche, Indianapolis, Ind.) and Annexin V (Pharmingen, San Diego, Calif.) assays were performed as described previously.
In three primary samples from AML patients with FLT3/ITD mutations (FIG. 8), a similar pattern of response to FL and FLT3 inhibition was observed.

B1: FL: Recombinant human FL (fms-related tyrosine kinase ligand) purchased from PeproTech; SEQ ID NO: 1 (protein, listed as Homo sapiens)
chain: MTVLAPAWSPTTYLLLLLLLSSGLSGTQDCSFQHSPISSDFAVKIRELSDYLLQDYPVTVASNLQDEELCGGLWRLVLAQRWMERLKTVAGSKMQGLLERVNTEIHFVTKCAFQPPPSCLRFVQTNISRLLQETSEQLVALKPWITRQNFSRCLELQCQPDSSTLPPPWSPRPLEATAPTAPQPPLLLLLLLPVGLLLLAAAWCLHWQRTRRRTPRPGEQVPPVPSPQDLLLVEH
**Q.** Which “enhancement of FLT3 phosphorylation” value [1] does the source give for B1 here?
**A.** Its value is “More than 2 fold”.

**Q.** What about the “phosphorylation of FLT3” value [2] of the same molecule?
**A.** Its value is “increased phosphorylation”.

**Q.** And the “metabolic activity of the sample in culture medium” value [3]?
**A.** Its value is “increased”.
